# Measured values as given in the DeepSol protein solubility set.
# Test: soluble on expression in E. coli; label from the status in PepcDB or PDB records
row,Sequence,soluble on expression in E. coli
1,NELSQERTARLNELQRALVMMDSDFRQIALRQTRTNGEEPSKKLLHWADYLLDSDNKGIMFARLGWHNPQQQFPRGEVTKVGYRIKDERLERVWWRYPDTPAGQEGVVTPLLSDVEELNVRFYDGKQWINEWSNELTLPAAISVELTLKDYGKIARTYLTPEGN,soluble
2,MKQIAFIGLGHMGAPMATNLLKAGYLLNVFDLVQSAVDGLVAAGASAARSARDAVQGADVVISMLPASQHVEGLYLDDDGLLAHIAPGTLVLECSTIAPTSARKIHAAARERGLAMLDAPVSGGTAGAAAGTLTFMVGGDAEALEKARPLFEAMGRNIFHAGPDGAGQVAKVCNNQLLAVLMIGTAEAMALGVANGLEAKVLAEIMRRSSGGNWALEVYNPWPGVMENAPASRDYSGGFMAQLMAKDLGLAQEAAQASASSTPMGSLALSLYRLLLKQGYAERDFSVVQKLFDPTQGQ,soluble
3,MNYHQYYPVDVVNGPGTRCSLFVAGCVHECVGCYNKSTWRLNSGQPFTQEQEDRIIADLQDKLIPRQGISLSGGDPLHPQNVPDILRLVERIRAECPGKDIWVWTGYVLADITREQQRVVDLINVLVDGKFVQDLKDPALIWRGSSNQVVHRLRLEHHHHHH,not soluble
4,MAHHHHHHMPPFFEARAEKLMLAAQEECRLLAAQLEKSRAARAASTCGPQGKIRAAPATAPVAATSPPSPRRTYSAATATVAVKGLSIGSSTSTSPDRAGSPSAAPPSASPARVVIPTAATHKEGTLLHLVRGSGLFGSGSRSFVPHYIAVSGSAGISWYASEAEYRQNPSRPLGHADFWIETFNSRGSRFKKAAVCWPLILPDDCPEAKDANKTYFAVDYYTPDEAREQVVLAASSPAERDEWVQLLTKYIDLYLAPRAESEELQHIPRGAEVPLHRSGVIEGEAPGGNIL,soluble
5,MGSDKIHHHHHHMNVLNDSVDDTVQKKVAFFLPTLNIGGIERVFITYANYLIDKKYNIYFILCKRRGELLSLLDSNIKLYHLGNVQLKFSFLKLRQSLKEIQPDVIVSGGDFPNLILIVSSLGLKKVPKIIISQHNYYNVETRRLGWWAYGTCFFMKKIYPKADKIIAVSDGIREFLIKKIHISADRIIKLPNPIDIKGIKEKSLELLDITLPDRYILFVGRLSYVKNLFFLLDAFEMGKLDNNSLVIVGDGEMRNALMKKAKKMHKADNIIFLGAMENPLPILKKAQLLVLPSFSEAYPTILLEALCLYIPVVSTPTKGAKEILHNVSGTYISTDCYNIEEFARLMERGVKERISHKVIDDKIGLNSIENIGLRIQREIIEDNRL,not soluble
6,MGSDKIHHHHHHMAAWRTVVIATSCHLRVRDRQLVIESREGERTQLPLADIGVVIVENPQVTLSAALLSALAQEGTALMSCDSSHLPDGVFAPFGTHSRHTRAARVQAVWSEPFKKRCWQKIVRAKVSSQAEVLRRVGAEDAARRLENLVGKVTSGDTTGVEAQAAQVYWRSLFVNFKRWDGGLDARNGGLNYGYAVLRGALGRAIAGAGLIPAFGLHHAGELNSFNLADDLIEPFRPFVDLLVWGLFLERTGDDPLTREERMRIAQILGESCIMTERYETLLSATQIIARSLVSAGEQKESRRLILPWMGEDDVQGEVYEADGDV,not soluble
7,MKEDKKVLHVANMTNGLIVYPDYDYIVYFPSSYTAAGTPLYFPEFAVPIDLIKALLEEKKVIMYDATVHENKELTDAFLKGVPTFLMALNRAIHGTKGLFEKLEKGYKVCPWQTPDIVQHAVYRLPKHYYKFLKKCVKLFAPEKRGKLWISIPENVELVVEKIDRRLNDNYEEIAKMIKEKKSIHTYRV,not soluble
8,MEEELASYKLQLQQVEAALLGDPTNVELLKLKEDLGEIISLQEDLAETDKAESSERAVVAPQVIHKWTVGERVIAPHPDGKKVFARIDSLTPAGVAITFTSTGTKTIVDPADLQLPPENQRKNYAFDNTKSAAGPSTQHGKKEWQAEKERRRQKALKKQQKQKELDSIKDGEKKSWQKFNTKANAKGLKGLKKVSATGSSQDGSASSSGGGGEKRGTIVSSRSSQFIFKATRGAMDSLF,not soluble
9,MNKQPGQQPLRSLSLTSAAKSPEEVEPEQDSKKGEPRAKAAGFGGGGGGGKRLPEARSTPMVIPNQVAAMPVQMTGFVQLVANNILSAIAHTNSVMVVQCIKPLEIFTGFETPNRYVVHDMYCRPLLYCMERSNIFARQYEGNDRNFGMQIMDTHGAQVMTCFRGRPCCSTDDFLSTQFLDQQIGMMKKECCNPNFELVGSGCNQPLLIQSPGCAGCGGTQKFPVMTFNGVLVGEIVRLYPGFMQEMFTDADTYIVHFPMDMPPILKLLLVTSVFLIDFTYFEDRNQDQHRNGGMHSGMHSSF,not soluble
10,MGSDKIHHHHHHMSEMMIVAVTGGKGGTGKSTLSANLFFYFIENYKTALIDCDVETPNLPYLTGCEDLFLAREVFIEVPNIEEGKTYNYNNVCKEGALLKVGDKLIFIEDLCSGCKACGINSNITFKKKSIGKIYEKKFDNGYLIVGKSNLGERKTAKIVTETKKYGLSKNCEINIVDTAAGTHCNVVRALINADKVLIVTEPTPFGVSDAKRIIKVVEKLNIPYKIVLNRYGISDLKIGYNFKIPYDKRIVECYCKGESFLKYNDLRNYIEEIANWIIWG,not soluble
11,GKVEERWTKTTDGKQMLSWVIYPVNFDANKKYPTLLFCEGGPQSPVSQFWSYRWNFQIMAANDYIIIAPNRRGLPGFGMEWLEQISGDYGGQCMKDYLSAIDDISKEPYVDTNRLGCVGASFGGFSVYWLAGHHDKRFKAFIAHDGIFNMEQQYLETEEMWFANWDMGGAYWDKNNATAQRTFANSPHRFVDKWDTPILCIHGEKDYRILASQGMSAFNAAVLRGVPAELLLYPDENHWVLKPQNGVLWQRTFFSWLDKWLK,not soluble
12,MKVVVIGGGWSGVAAAIEAKKMGADVVLFEKTDLLLGLGNVGGIMRNNGRYTASEELIAMGGGDLINITDKVSRHKDIPFPGHEHAWLYDVNLVEGEVKRYVESLGIETKMVSRIIDIKQEDNKILGVYTSDGQYYNGDVFIETTGSTGPMGNCLRYGNGCSMCILRCPSFGPRISISSRCGVEDIQGERVGDELGAFSGSCKLAKETLSEEIRKELEEKGCVVLKIPKEDVNYDKLNTKVCQQYALKEFAENVVLLDTGHAKLMTTYYPLEKLRKIKGLENAKYVDPYAGGKGNSIRYLSVAPRDDNMKVKGVTNLFCAGEKSGLFVGHTEAIVTGTLAGHNAVRHALGIPYLILPRATVLGDIIAFANEESQSREGKKNRYTFAGSVYFNRMKELGLYTIDKDEIQKRVAQLNLDGVFSKKLMLEHHHHHH,not soluble
13,MPLSPYLSFAGNCSDAIAYYQRTLGAELLYKISFGEMPKSAQDSAENCPSGMQFPDTAIAHANVRIAGSDIMMSDAIPSGKASYSGFTLVLDSQQVEEGKRWFDNLAANGKIEMAWQETFWAHGFGKVTDKFGVPWMINVVKQQPTQ,not soluble
14,MFHGIPATPGIGAPGNKPELYEEVKLYKNAREREKYDNMAELFAVVKTMQALEKAYIKDCVSPSEYTAACSRLLVQYKAAFRQVQGSEISSIDEFCRKFRLDCPLAMERIKEDRPITIKDDKGNLNRCIADVVSLFITVMDKLRLEIRAMDEIQPDLRELMETMHRMSHLPPDFEGRQTVSQWLQTLSGMSASDELDDSQVRQMLFDLESAYNAFNRFLHALEHHHHHH,not soluble
15,MDKKILVVDDEKPIADILEFNLRKEGYEVHCAHDGNEAVEMVEELQPDLILLDIMLPNKDGVEVCREVRKKYDMPIIMLTAKDSEIDKVIGLEIGADDYVTKPFSTRELLARVKANLRRQ,soluble
16,MRLPTEAHLRQHVRVIDSMSCNREKVRDLRRQIPSFDCVPGCHDCCGPVTTSSEEMSRLPRKTVAEQEAAFNELNCVHLGPQGCTVYDERPLICRLFGTTASLPCPNGRRPVELIHPRAEKQIHEYMASTRQVLVLEHHHHHH,not soluble
17,MGSDKIHHHHHHMSIFVKTFGGTRVIKDNDIVSARDWPSQKAFALFRYLIFRRNEEVSVEEIYNLFWEDMDDTFAKSNLNTTLHIIRKTTGITSEELFVKGDLCCFFPGGEITIDADIFEECHRNLMKATSDAEREKLLKRMFEIYTGPFLVEDIFAEWVQEIREIYESWYSDVLKELFKLYLSKKDYDAALEMVNAYFQREPYDEDMYYRAIEVLLKKGDITRAKRVYDKLSSHLMEIGIKPRLKFDDFLSKRDSEFMLNGNKAVVVDEKLFERFLFLESRRREKSFVLVEVKLTDKSISTEDVSQRVASQLRKGDVITFSGETIRILFHCPEQRRPTMEKRVVDALEKVGVKKGQYEIS,not soluble
18,MNQKLLKLENLLRFHTICRQVHSPSQRRLLAWCRHGFAPASSVWRDLLGARSWQTDMLIGSALHQHRLLVTKKEKRPPRSQLSPVKTKKEVEVWVGMTVEDLASAMAKDIDCVYEALLNTAIDVDSLEANSHLDEVWIKEVIKKAGMKLKWSKLKQERIRENKDAVRRPGTDPALLKPRSPVVTVMGHVDHGKTTLLDKLRETQVAAMEVGGITQHIGAFLVSLPSGEKITFLDTPGHAAFSAMRARGAQVTDIVVLVVAADDGVMKQTVESIQHAKDAEVPIILAINKCDKTDADPEKVKKELLAYDVVCEEYGGDVQAVHVSALTGDNLMALAEATIALAEILELKADPTGPVEGTVIESFTDKGRGPVTTAIIQRGTLRKGSILVAGKSWAKVRLIFDENGKILNEAYPSMPVGIIGWRDLPSAGDEILEVESEPRAREVIEWRKSEQKEEKGKDDLKIMEEKRREHQEAHRKAREKYGSLHWKERSYIKFLERKQQRPLKPKEKVERQSNVLPIIIKGDVDGSVEAILNLLDTYDASHECELELVHFGLGDISENDVTFAETFDGVIYGFNVEAGSAIQQSAAQKGVKIKLHKIIYHLIEDLQEELSSRLPHTLEEYPIGEASILATFTVTEGKKKIPVADCRVQKGQLERHKKFKLIRNGQVIWKGSLTSLKHHKDDISVIKTGMDCGLSLDEEKVEFKPGDQVICYEENKVPTKTSWDPGF,soluble
19,MGSDKIHHHHHHMNYPQEKIKPYSNDGKKSEQVEQMFDNIAPAYDQLNHTLSLGIDRSWRRKAINWLKPFRPQQIMDVATGTGDFAILACHELQPEQLIGTDISEGMMNVGREKVKKEGLSEKISFAREDCTSLSFADNRFDAITVAFGIRNFEDLDKGLSEMYRVLKTGGHLVILELTTPDRFPMKQMFTIYSKIVIPTLGKLLSKDNSAYSYLPQTIKAFPQGEVMKNVISRVGFSQVQFRRLTFGICTLYTATK,not soluble
20,SLSWDSVVERIRIFLVESPIKMARLQGVGNVKGSVKRVLLEVTSADGIVGWGEAAPWEVFTGTPEAAFSALDIYLRPLILGAPIKRVRELMARMDKMLVGHGEAKAAVEMALLDILGKATGLSVADLLGGRVRDRIPLSFSIADPDFDADLERMRAMVPAGHTVFKMKTGVKPHAEELRILETMRGEFGERIDLRLDFNQALTPFGAMKILRDVDAFRPTFIEQPVPRRHLDAMAGFAAALDTPILADESCFDAVDLMEVVRRQAADAISVKIMKCGGLMKAQSLMAIADTAGLPGYGGTLWEGGIALAAGTQLIAATPGISLGCEFYMPHHVLTEDVLEERIANSAGHVIVPDGPGLGISISEASLRGNAKILAER,soluble
21,MKQMNVVLIGGGTGLSVLARGLREFPIDITAIVTVADNGGSTGKIRDVMDIPAPGDIRNVIAALSDSESILTQLFQYRFGENQVDGHSLGNLVIAGMTNITNDFGHAIKELSKVLNIKGQVIPSTNASVQLNAVMEDGEIVHGETNIPKTHKKIDRVFLEPSDVEPMNEAIEALEQADLIVLGPGSLYTSVISNLCVKGISEALLRTSAPKLYVSNVMTQPGETDNYDVKEHIDALTRQVGEPFIDFVICSSESYSKDVLQRYEEKNSKPVAVHKEQLKDSGIRVLTASNLVEISNEHYVRHNTKVLSKMIYELALELTSTIRFTPSDKKKMAGDPLEHHHHHH,soluble
